Measured values: patent US6309839

Assays:
[1] = target: T1, Dda helicase (bacteriophage T4?) (UniProt P32270); settings: biotin at position 60, streptavidin-bound; streptavidin displacement rate at 1 uM Dda, preincubated with DNA, 5 mM ATP, Mg2+
T1 sequence: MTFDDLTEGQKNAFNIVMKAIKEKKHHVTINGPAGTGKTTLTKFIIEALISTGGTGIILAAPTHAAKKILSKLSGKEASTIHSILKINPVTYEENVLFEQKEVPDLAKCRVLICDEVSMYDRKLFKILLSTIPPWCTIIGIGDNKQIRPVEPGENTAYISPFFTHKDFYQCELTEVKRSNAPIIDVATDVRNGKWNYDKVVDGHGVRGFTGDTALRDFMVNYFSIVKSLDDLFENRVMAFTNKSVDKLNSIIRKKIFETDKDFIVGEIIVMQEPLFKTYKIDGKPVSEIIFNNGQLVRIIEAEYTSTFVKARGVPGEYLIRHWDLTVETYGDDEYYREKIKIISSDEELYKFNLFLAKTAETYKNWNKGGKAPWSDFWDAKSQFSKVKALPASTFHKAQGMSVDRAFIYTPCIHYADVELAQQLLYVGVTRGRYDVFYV

[2] = target: T2, gp41 helicase (bacteriophage T4?) (UniProt P04530); settings: biotin at position 60, streptavidin-bound; streptavidin displacement rate at 4 uM gp41; 5 mM ATP, 12.5 mM Mg(OAc)2, 150 mM KOAc, pH 7.5, 37 C; none without ATP
T2 sequence: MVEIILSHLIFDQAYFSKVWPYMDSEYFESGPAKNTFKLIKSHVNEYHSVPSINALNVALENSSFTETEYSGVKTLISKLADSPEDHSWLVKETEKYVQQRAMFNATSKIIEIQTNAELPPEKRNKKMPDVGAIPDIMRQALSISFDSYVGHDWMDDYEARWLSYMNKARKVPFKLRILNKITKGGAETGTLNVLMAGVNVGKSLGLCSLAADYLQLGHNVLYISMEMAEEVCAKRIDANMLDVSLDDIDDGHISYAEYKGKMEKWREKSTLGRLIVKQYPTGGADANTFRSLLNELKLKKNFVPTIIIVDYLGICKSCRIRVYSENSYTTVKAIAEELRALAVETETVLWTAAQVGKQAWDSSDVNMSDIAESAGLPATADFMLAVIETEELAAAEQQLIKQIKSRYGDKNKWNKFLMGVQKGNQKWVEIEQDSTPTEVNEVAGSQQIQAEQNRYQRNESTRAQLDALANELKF

[3] = target: NS3 helicase (full length) (Hepatitis C virus) (UniProt P26663); settings: biotin at position 2, streptavidin-bound; streptavidin displaced from 5' end; 10 nM NS3, 100 nM oligonucleotide
Chain of NS3 helicase (full length) (Hepatitis C virus) (P26663 1027-1657): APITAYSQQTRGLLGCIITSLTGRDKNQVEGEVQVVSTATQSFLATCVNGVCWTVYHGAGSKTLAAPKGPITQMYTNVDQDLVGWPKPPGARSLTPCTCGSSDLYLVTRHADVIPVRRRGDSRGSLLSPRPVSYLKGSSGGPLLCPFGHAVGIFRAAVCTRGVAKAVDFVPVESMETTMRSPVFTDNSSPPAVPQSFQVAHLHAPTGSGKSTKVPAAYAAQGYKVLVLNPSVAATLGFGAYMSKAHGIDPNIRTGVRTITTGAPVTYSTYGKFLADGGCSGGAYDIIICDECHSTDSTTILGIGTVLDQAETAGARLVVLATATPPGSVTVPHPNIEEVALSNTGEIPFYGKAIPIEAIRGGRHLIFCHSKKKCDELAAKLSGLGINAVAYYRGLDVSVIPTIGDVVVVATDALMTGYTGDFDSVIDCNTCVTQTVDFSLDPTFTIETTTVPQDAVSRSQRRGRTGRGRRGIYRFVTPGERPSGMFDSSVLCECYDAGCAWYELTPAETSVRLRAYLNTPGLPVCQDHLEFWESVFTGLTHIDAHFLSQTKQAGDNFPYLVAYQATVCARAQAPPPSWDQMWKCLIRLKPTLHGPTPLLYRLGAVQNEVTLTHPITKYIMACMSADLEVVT

## 3'-bio-61-mer (called 62-mer in text)
[1]
  activity: 7.9 s⁻¹
[2]
  activity: 0.17 min⁻¹

## 5'-bio-60-mer
[3]
  activity (fold over spontaneous dissociation): > 100
